Source: patent publication US20050256058A1 (GEORGIA TECH RESEARCH, published 2005)
Numbered stars: 1 amine (or outer) side, 2 acyl side, 3 side chain; on linkers, the order of the positions; unused ones are H or OH. Square brackets hold non-standard residues; d marks the D form. * marks the point of attachment. CH═CH‑CON(CH3)CH2CH2Ph = CN(CCc1ccccc1)C(=O)/C=C/*; AAsp = aza-Asp, O=C(N(CC(=O)[*:3])N[*:1])[*:2]; CH═CH‑CON(CH3)CH2Ph = CN(Cc1ccccc1)C(=O)/C=C/*; CH═CH‑COOCH2Ph = O=C(/C=C/*)OCc1ccccc1; CH═CH‑COOEt = CCOC(=O)/C=C/*; Cbz = O=C(OCc1ccccc1)*

T1: Caspase-2 (UniProt P42575 170-452, limits assumed)
T1 sequence (looked up): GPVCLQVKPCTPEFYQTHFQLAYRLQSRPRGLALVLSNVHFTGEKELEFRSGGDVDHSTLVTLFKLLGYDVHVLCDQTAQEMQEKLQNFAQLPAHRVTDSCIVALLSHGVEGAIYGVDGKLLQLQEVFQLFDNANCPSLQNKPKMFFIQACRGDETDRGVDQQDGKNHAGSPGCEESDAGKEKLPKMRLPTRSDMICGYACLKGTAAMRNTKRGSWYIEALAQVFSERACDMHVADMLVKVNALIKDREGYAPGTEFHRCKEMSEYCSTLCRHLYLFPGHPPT

T2: Caspase-3 (UniProt P42574 29-277)
T2 sequence (looked up): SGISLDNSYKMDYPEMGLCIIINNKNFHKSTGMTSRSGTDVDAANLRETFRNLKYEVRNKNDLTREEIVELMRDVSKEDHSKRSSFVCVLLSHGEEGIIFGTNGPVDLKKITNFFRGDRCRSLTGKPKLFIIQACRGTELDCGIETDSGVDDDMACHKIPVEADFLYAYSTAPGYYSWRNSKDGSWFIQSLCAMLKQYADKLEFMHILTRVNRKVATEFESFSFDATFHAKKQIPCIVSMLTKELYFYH

T3: Caspase-6 (UniProt P55212 24-293, limits assumed)
T3 sequence (looked up): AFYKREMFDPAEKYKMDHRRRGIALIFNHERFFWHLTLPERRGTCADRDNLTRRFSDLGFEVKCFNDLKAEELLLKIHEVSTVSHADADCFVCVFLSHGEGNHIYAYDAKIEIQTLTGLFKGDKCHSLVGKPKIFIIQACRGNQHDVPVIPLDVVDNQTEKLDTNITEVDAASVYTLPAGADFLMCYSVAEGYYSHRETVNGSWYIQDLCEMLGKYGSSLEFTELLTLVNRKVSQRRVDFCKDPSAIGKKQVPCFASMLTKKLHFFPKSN

T4: Caspase-7 (UniProt P55210 24-303)
T4 sequence (looked up): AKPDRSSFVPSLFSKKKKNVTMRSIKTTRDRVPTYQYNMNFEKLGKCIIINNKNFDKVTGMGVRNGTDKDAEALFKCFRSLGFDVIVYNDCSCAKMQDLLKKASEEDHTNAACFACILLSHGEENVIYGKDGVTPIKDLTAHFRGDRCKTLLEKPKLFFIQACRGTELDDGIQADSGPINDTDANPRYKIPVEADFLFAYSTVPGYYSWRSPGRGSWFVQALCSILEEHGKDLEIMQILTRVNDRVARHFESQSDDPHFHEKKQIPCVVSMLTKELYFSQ

T5: Caspase-9 (UniProt P55211 1-416, limits assumed)
T5 sequence (looked up): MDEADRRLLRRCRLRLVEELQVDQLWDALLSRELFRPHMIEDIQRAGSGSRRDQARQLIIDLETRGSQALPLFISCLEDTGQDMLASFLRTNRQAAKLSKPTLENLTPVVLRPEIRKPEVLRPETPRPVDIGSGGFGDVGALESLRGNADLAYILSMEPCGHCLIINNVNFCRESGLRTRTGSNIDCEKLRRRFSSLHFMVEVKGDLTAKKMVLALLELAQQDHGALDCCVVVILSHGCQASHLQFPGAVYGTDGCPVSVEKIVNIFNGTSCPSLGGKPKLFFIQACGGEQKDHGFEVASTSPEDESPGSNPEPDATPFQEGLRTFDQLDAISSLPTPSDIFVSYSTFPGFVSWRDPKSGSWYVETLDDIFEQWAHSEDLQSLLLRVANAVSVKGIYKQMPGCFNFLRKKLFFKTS

T6: Caspase-10 (UniProt Q92851 220-521, limits assumed)
T6 sequence (looked up): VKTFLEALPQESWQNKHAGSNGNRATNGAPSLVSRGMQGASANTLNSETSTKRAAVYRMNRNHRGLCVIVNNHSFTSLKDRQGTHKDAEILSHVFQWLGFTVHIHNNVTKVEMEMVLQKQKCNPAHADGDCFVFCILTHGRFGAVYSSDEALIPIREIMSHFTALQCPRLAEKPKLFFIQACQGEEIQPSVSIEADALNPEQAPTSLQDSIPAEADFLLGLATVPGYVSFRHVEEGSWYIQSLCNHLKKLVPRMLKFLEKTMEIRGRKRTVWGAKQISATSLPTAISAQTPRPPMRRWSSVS


Tests used:
Experiment in all cases: cell-based or functional assay
Caspase-2 = molecular target: T1, Caspase-2
Caspase-3 = molecular target: T2, Caspase-3
Caspase-6 = molecular target: T3, Caspase-6
Caspase-7 = molecular target: T4, Caspase-7
Caspase-8 = Caspase-8 (UniProt Q14790 217-479)
Caspase-8, sequence (Q14790 217-479 limits assumed): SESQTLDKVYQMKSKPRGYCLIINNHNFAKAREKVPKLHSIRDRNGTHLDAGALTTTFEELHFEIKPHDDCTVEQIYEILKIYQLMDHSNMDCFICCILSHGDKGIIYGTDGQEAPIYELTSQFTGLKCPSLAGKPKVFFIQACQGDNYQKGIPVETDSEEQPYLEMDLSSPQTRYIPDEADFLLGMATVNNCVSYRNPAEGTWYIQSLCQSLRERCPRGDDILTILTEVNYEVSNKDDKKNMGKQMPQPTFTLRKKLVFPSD

Caspase-9 = molecular target: T5, Caspase-9
Caspase-10 = molecular target: T6, Caspase-10

Row | k2 (Caspase-2) | k2 (Caspase-3) | k2 (Caspase-6) | k2 (Caspase-7) | k2 (Caspase-8) | k2 (Caspase-9) | k2 (Caspase-10) | Binder
1 | 70 M⁻¹ s⁻¹ | 4490 M⁻¹ s⁻¹ | 3100 M⁻¹ s⁻¹ | 410 M⁻¹ s⁻¹ | 171000 M⁻¹ s⁻¹ | 1700 M⁻¹ s⁻¹ | 9380 M⁻¹ s⁻¹ | Cbz-LET[AAsp]-{CH═CH‑CONHCH2‑4‑F‑Ph} [Cbz-Leu-Glu-Thr-AAsp-CH═CH-CONHCH2-4-F-Ph]
2 |  |  |  |  |  | 15 M⁻¹ s⁻¹ |  | Cbz-Val-[AAsp]-{CH═CH‑Cl} (also: cis isomer) [Cbz-Val-AAsp-CH═CH-Cl]
3 | 140 M⁻¹ s⁻¹ | 6000 M⁻¹ s⁻¹ | 10800 M⁻¹ s⁻¹ | 520 M⁻¹ s⁻¹ | 169000 M⁻¹ s⁻¹ | 4320 M⁻¹ s⁻¹ | 8430 M⁻¹ s⁻¹ | Cbz-LET[AAsp]-{CH═CH‑CON(CH3)CH2Ph} (SMILES CC(C)C[C@H](NC(=O)OCc1ccccc1)C(=O)N[C@@H](CCC(=O)O)C(=O)N[C@H](C(=O)NN(CC(=O)O)C(=O)/C=C/C(=O)N(C)Cc1ccccc1)[C@@H](C)O) [Cbz-Leu-Glu-Thr-AAsp-CH═CH-CON(CH3)CH2Ph]
4 |  | 2.1e+06 M⁻¹ s⁻¹ | 4400 M⁻¹ s⁻¹ | 329000 M⁻¹ s⁻¹ | 85100 M⁻¹ s⁻¹ | 900 M⁻¹ s⁻¹ | 37700 M⁻¹ s⁻¹ | Cbz-DEV[AAsp]-{CH═CH‑CONHCH2‑4‑F‑Ph} [Cbz-Asp-Glu-Val-AAsp-CH═CH-CONHCH2-4-F-Ph]
5 | 390 M⁻¹ s⁻¹ | 2.3e+06 M⁻¹ s⁻¹ | 5700 M⁻¹ s⁻¹ | 137000 M⁻¹ s⁻¹ | 118000 M⁻¹ s⁻¹ | 340 M⁻¹ s⁻¹ | 8330 M⁻¹ s⁻¹ | Cbz-DEV[AAsp]-{CH═CH‑CO‑tetrahydroquinoline} [Cbz-Asp-Glu-Val-AAsp-CH═CH-CON-tetrahydroquinoline]
6 | 66 M⁻¹ s⁻¹ | 1120 M⁻¹ s⁻¹ | 1550 M⁻¹ s⁻¹ | 340 M⁻¹ s⁻¹ | 70200 M⁻¹ s⁻¹ | 1400 M⁻¹ s⁻¹ | 14400 M⁻¹ s⁻¹ | Cbz-LET[AAsp]-{CH═CH‑CONHCH2Ph} [Cbz-Leu-Glu-Thr-AAsp-CH═CH-CONHCH2Ph]
7 | 26200 M⁻¹ s⁻¹ | 1.06e+06 M⁻¹ s⁻¹ | 11000 M⁻¹ s⁻¹ | 139000 M⁻¹ s⁻¹ | 181000 M⁻¹ s⁻¹ |  | 13500 M⁻¹ s⁻¹ | Cbz-DEV[AAsp]-{cis‑CH═CH‑COOEt} [Cbz-Asp-Glu-Val-AAsp-CH═CH-COOEt (cis)]
8 | 660 M⁻¹ s⁻¹ | 2.64e+06 M⁻¹ s⁻¹ | 9500 M⁻¹ s⁻¹ | 275000 M⁻¹ s⁻¹ | 90300 M⁻¹ s⁻¹ | 820 M⁻¹ s⁻¹ | 29400 M⁻¹ s⁻¹ | Cbz-DEV[AAsp]-{CH═CH‑CON(CH3)CH2Ph} (SMILES CC(C)[C@H](NC(=O)[C@H](CCC(=O)O)NC(=O)[C@H](CC(=O)O)NC(=O)OCc1ccccc1)C(=O)NN(CC(=O)O)C(=O)/C=C/C(=O)N(C)Cc1ccccc1) [Cbz-Asp-Glu-Val-AAsp-CH═CH-CON(CH3)CH2Ph]
9 | 50 M⁻¹ s⁻¹ | 2620 M⁻¹ s⁻¹ | 2550 M⁻¹ s⁻¹ | 290 M⁻¹ s⁻¹ | 65300 M⁻¹ s⁻¹ | 960 M⁻¹ s⁻¹ | 6190 M⁻¹ s⁻¹ | Cbz-LET[AAsp]-{CH═CH‑CON(CH3)CH2CH2Ph} (SMILES CC(C)C[C@H](NC(=O)OCc1ccccc1)C(=O)N[C@@H](CCC(=O)O)C(=O)N[C@H](C(=O)NN(CC(=O)O)C(=O)/C=C/C(=O)N(C)CCc1ccccc1)[C@@H](C)O) [Cbz-Leu-Glu-Thr-AAsp-CH═CH-CON(CH3)CH2CH2Ph]
10 | 165 M⁻¹ s⁻¹ | 122000 M⁻¹ s⁻¹ | 1800 M⁻¹ s⁻¹ | 10800 M⁻¹ s⁻¹ | 9720 M⁻¹ s⁻¹ |  | 930 M⁻¹ s⁻¹ | Cbz-DEV[AAsp]-{CH═CH‑COPh} [Cbz-Asp-Glu-Val-AAsp-CH═CH-COPh]
11 | 480 M⁻¹ s⁻¹ | 4600 M⁻¹ s⁻¹ | 47600 M⁻¹ s⁻¹ | 1570 M⁻¹ s⁻¹ | 98400 M⁻¹ s⁻¹ |  | 18900 M⁻¹ s⁻¹ | Cbz-LET[AAsp]-{CH═CH‑COOCH2Ph} (SMILES CC(C)C[C@H](NC(=O)OCc1ccccc1)C(=O)N[C@@H](CCC(=O)O)C(=O)N[C@H](C(=O)NN(CC(=O)O)C(=O)/C=C/C(=O)OCc1ccccc1)[C@@H](C)O) [Cbz-Leu-Glu-Thr-AAsp-CH═CH-COOCH2Ph]
12 | 410 M⁻¹ s⁻¹ | 5.62e+06 M⁻¹ s⁻¹ | 29700 M⁻¹ s⁻¹ | 875000 M⁻¹ s⁻¹ | 9460 M⁻¹ s⁻¹ | 150 M⁻¹ s⁻¹ | 32500 M⁻¹ s⁻¹ | Cbz-DEV[AAsp]-{CH═CH‑CON(CH2-1-Napth)2} [Cbz-Asp-Glu-Val-AAsp-CH═CH-CON(CH2-1-Napth)2]
13 |  | 184 M⁻¹ s⁻¹ |  | 55 M⁻¹ s⁻¹ |  | 32 M⁻¹ s⁻¹ |  | Cbz-Val-[AAsp]-{CH═CH‑CONH‑nBu} [Cbz-Val-AAsp-CH═CH-CONH-nBu]
14 |  |  |  | 56 M⁻¹ s⁻¹ |  |  |  | Cbz-Val-[AAsp]-{CH═CH‑CH═CH‑CH3} [Cbz-Val-AAsp-CH═CH-CH═CH-CH3]
15 | 110 M⁻¹ s⁻¹ | 5400 M⁻¹ s⁻¹ | 2150 M⁻¹ s⁻¹ | 440 M⁻¹ s⁻¹ | 121000 M⁻¹ s⁻¹ | 1760 M⁻¹ s⁻¹ | 17900 M⁻¹ s⁻¹ | Cbz-LET[AAsp]-{CH═CH‑CONHCH2CH2Ph} [Cbz-Leu-Glu-Thr-AAsp-CH═CH-CONHCH2CH2Ph]
16 |  | 185 M⁻¹ s⁻¹ |  | 60 M⁻¹ s⁻¹ |  | 20 M⁻¹ s⁻¹ |  | Cbz-Val-[AAsp]-{CH═CH‑CONHCH2Ph} [Cbz-Val-AAsp-CH═CH-CONHCH2Ph]
17 | 290 M⁻¹ s⁻¹ | 4700 M⁻¹ s⁻¹ | 11400 M⁻¹ s⁻¹ | 730 M⁻¹ s⁻¹ | 176000 M⁻¹ s⁻¹ | 1190 M⁻¹ s⁻¹ | 6050 M⁻¹ s⁻¹ | Cbz-LET[AAsp]-{CH═CH‑CONHPh} [Cbz-Leu-Glu-Thr-AAsp-CH═CH-CONHPh]
18 |  |  |  |  |  | 19 M⁻¹ s⁻¹ |  | Cbz-Val-[AAsp]-{CH═CH‑4‑Cl‑Ph} [Cbz-Val-AAsp-CH═CH-4-Cl-Ph]
19 | 320 M⁻¹ s⁻¹ | 1.18e+06 M⁻¹ s⁻¹ | 4000 M⁻¹ s⁻¹ | 172000 M⁻¹ s⁻¹ | 31900 M⁻¹ s⁻¹ | 425 M⁻¹ s⁻¹ | 9570 M⁻¹ s⁻¹ | Cbz-DEV[AAsp]-{CH═CH‑CON(CH3)CH2CH2Ph} (SMILES CC(C)[C@H](NC(=O)[C@H](CCC(=O)O)NC(=O)[C@H](CC(=O)O)NC(=O)OCc1ccccc1)C(=O)NN(CC(=O)O)C(=O)/C=C/C(=O)N(C)CCc1ccccc1) [Cbz-Asp-Glu-Val-AAsp-CH═CH-CON(CH3)CH2CH2Ph]
20 |  | 8000 M⁻¹ s⁻¹ |  | 2680 M⁻¹ s⁻¹ |  | 5240 M⁻¹ s⁻¹ | 389 M⁻¹ s⁻¹ | Cbz-Val-[AAsp]-{CH═CH‑COOEt} [Cbz-Val-AAsp-CH═CH-COOEt]
21 | 90 M⁻¹ s⁻¹ | 38600 M⁻¹ s⁻¹ | 3540 M⁻¹ s⁻¹ | 52400 M⁻¹ s⁻¹ |  |  | 8940 M⁻¹ s⁻¹ | Cbz-Glu-Val-[AAsp]-{CH═CH‑COOEt} (SMILES CCOC(=O)/C=C/C(=O)N(CC(=O)O)NC(=O)[C@@H](NC(=O)[C@H](CCC(=O)O)NC(=O)OCc1ccccc1)C(C)C) [Cbz-Glu-Val-AAsp-CH═CH-COOEt]
